Source: the supplement of paper PMC10567573

B1: FAM50A (parent)
chain: HIFPASRWEPYDPEKKWDKYTIR

Variants of: B1
Assay: protein stability index of a GFP-peptide fusion (GPS, HEK-293T) (PSI 1-6); higher = more stable
Settings: c terminus: native
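Also: lentivirally expressed fusions sorted by FACS into six bins by GFP to DsRed ratio, PSI derived from sequencing read proportions per bin multiplied by bin number.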

Protein stability index, by site and new letter:
W8: A 3.29; I 3.38; N 3.88; R 3.54; G 3.72; V 3.62; D 3.54; S 3.62; M 3.42; H 3.46; E 3.6; K 2.96; F 2.17; Q 4.11; Y 2.5; T 4.03; P 3.92; L 3.38; C 3.11
Y11: L 2.27; N 2.67; K 3.01; E 2.37; W 2.11; H 2.35; D 2.74; M 2.65; Q 2.28; C 2.48; V 2.67; P 2.71; T 2.42; A 2.51; I 2.51; R 4.26; G 3.04; F 2.18; S 2.83
S6: V 1.95; A 2.66; W 2; M 2.48; Q 3.79; D 1.87; C 1.72; N 2.86; P 4.97; F 2.92; E 3.04; I 2.63; G 2.98; L 1.84
P10: S 2.91; T 2.3; I 1.24; Q 2.12; H 2.88; M 1.82; D 2.23; G 2.45; Y 2.89; F 2.04; R 2.7; W 1.58; A 1.71; L 1.8; N 2.02; E 2.32; K 2.24; V 1.94; C 3
F3: A 3.12; T 3; C 2.54; L 2.63; G 4.42; K 2.47; S 2.79; P 2.62; Y 2.1; N 3.25; M 1.74; Q 3.31; V 2.31; E 2.75; I 2.57; D 3.92; H 1.96
I2: W 2.16; Y 2.36
A5: C 1.73; Q 3.48; R 1.9; L 1.58; T 2.06; D 2.04; I 2.18; G 2.14; S 3.2; Y 1.5; E 1.96; P 3.42; F 2.24; H 1.8; M 1.54; V 1.77; K 2.31
P4: M 1.59; E 2.45; R 2.13; D 2.22; T 3.16; L 2.56; Q 1.77; S 1.97; W 1.64; H 2.36; C 1.69; K 2; N 2.71; V 1.79
D12: F 2.48; A 2.5; G 2.16; K 2.73; E 2.15; C 1.89; I 1.79; H 2.98; L 1.83
E9: M 1.77; Y 1.51; A 2.24; S 2.76; D 1.85; R 2.43; P 2.57; W 2.74; K 1.68; L 2.42; F 2.42; V 2.17; I 3.95; N 2.05; Q 2.2; C 3.21; G 1.72; H 1.88; T 1.87
R7: C 1.85; P 2.01; S 3.31; M 2.6; N 2.38; K 2.1; D 3.29; E 3.47; G 2.5; Y 1.65; I 1.48; V 2.48; H 2; L 1.21; T 2.66; W 1.22; A 2.34; Q 2.47
